Data reported in doi:10.1101/312850 (bioRxiv, 2018).

Target: T1, E. coli methionine aminopeptidase (MetAP), type-1a, N-terminal poly-His-tagged (E. coli, UniProt P0AE18 1-264)
T1 sequence (looked up): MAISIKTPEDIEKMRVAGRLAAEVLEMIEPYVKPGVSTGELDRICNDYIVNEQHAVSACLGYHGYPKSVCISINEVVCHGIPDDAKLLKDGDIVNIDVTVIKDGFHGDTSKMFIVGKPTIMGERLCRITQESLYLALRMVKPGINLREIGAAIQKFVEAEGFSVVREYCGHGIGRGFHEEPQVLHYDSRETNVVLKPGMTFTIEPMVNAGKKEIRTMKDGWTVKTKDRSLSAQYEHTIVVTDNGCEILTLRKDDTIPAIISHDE
Experiment: cryo-EM structure

binding result: binds
B1: E. coli peptide deformylase (PDF), N-terminal His6-tagged (enzyme, UniProt P0A6K3 1-169, looked up)
chain: MSVLQVLHIPDERLRKVAKPVEEVNAEIQRIVDDMFETMYAEEGIGLAATQVDIHQRIIVIDVSENRDERLVLINPELLEKSGETGIEEGCLSIPEQRALVPRAEKVKIRALDRDGKPFELEADGLLAICIQHEMDHLVGKLFMDYLSPLKQQRIRQKVEKLDRLKARA
